Results as given in the Human Domainome abundance scans (Beltran et al. 2025).
± gives the uncertainty stated by the source.

B1: Far upstream element-binding protein 1, residues 184 to 257; numbered along this chain, Q96AE4 (parent)
chain: GNAVQEIMIPASKAGLVIGKGGETIKQLQERAGVKMVMIQDGPQNTGADKPLRITGDPYKVQQAKEMVLELIRD

Variants of: B1
Assay: abundance fitness (aPCA) (normalised: wild type 0, dead -1); higher = more abundant; growth selection in yeast, the domain comes from the species named
Settings: Homo sapiens

First: GNAVQEIMIPASKAGLVIGKGGETIKQLQERAGVKMVMIQDGPQNTGADKPLRITGDPYKVQQAKEPVLELIRD [M67P]
Second: GNAVQEIMIPASKAGLVIGKGGETIKQLQERAGVKMVMIQDGPQNTGADKPLRITGDPYKVQQAKEIVLELIRD [M67I]
The abundance fitness of the first is lower: -0.455 ± 0.04 for the first, -0.128 ± 0.051 for the second.

First: GNAVQEIMIPASKAGLVIGKGGETIKQLQERAGVKMVMIQDGPQNTGADKPLRITGDPYKVQQAKEVVLELIRD [M67V]
Second: GNAVQEIMIPASKAGLVIGKGGETIKQLQERAGVKMVMIQDGPQNTGADKPLRITGDPYKVQQAKEAVLELIRD [M67A]
The abundance fitness of the first is lower: -0.126 ± 0.029 for the first, -0.03 ± 0.031 for the second.

Compared with GNAVQEIMIPASKAGLVIGKGGETIKQLQERAGVKMVMIQDGPQNTGADKPLRITGDPYKVQQAKEQVLELIRD [M67Q], GNAVQEIMIPASKAGLVIGKGGETIKQLQERAGVKMVMIQDGPQNTGADKPLRITGDPYKVQQAKEGVLELIRD [M67G] is lower in abundance fitness: -0.067 ± 0.039 for the first, -0.177 ± 0.028 for the second.

GNAVQEIMIPASKAGLVIGKGGETIKQLQERAGVKMVMIQDGPQNTGADKPLRITGDPYKVQQAKEFVLELIRD [M67F] and GNAVQEIMIPASKAGLVIGKGGETIKQLQERAGVKMVMIQDGPQNTGADKPLRITGDPYKVQQAKETVLELIRD [M67T] are within error of each other in abundance fitness: -0.117 ± 0.045 for the first, -0.116 ± 0.035 for the second.

GNAVQEIMIPASKAGLVIGKGGETIKQLQERAGVKMVMIQDGPQNTGADKPLRITGDPYKVQQAKEKVLELIRD [M67K] and GNAVQEIMIPASKAGLVIGKGGETIKQLQERAGVKMVMIQDGPQNTGADKPLRITGDPYKVQQAKESVLELIRD [M67S] are within error of each other in abundance fitness: -0.111 ± 0.039 for the first, -0.078 ± 0.031 for the second.

GNAVQEIMIPASKAGLVIGKGGETIKQLQERAGVKMVMIQDGPQNTGADKPLRITGDPYKVQQAKELVLELIRD [M67L] and GNAVQEIMIPASKAGLVIGKGGETIKQLQERAGVKMVMIQDGPQNTGADKPLRITGDPYKVQQAKENVLELIRD [M67N] are within error of each other in abundance fitness: -0.053 ± 0.029 for the first, -0.073 ± 0.051 for the second.

GNAVQEIMIPASKAGLVIGKGGETIKQLQERAGVKMVMIQDGPQNTGADKPLRITGDPYKVQQAKEWVLELIRD [M67W] and GNAVQEIMIPASKAGLVIGKGGETIKQLQERAGVKMVMIQDGPQNTGADKPLRITGDPYKVQQAKEHVLELIRD [M67H] are within error of each other in abundance fitness: -0.124 ± 0.033 for the first, -0.078 ± 0.047 for the second.

Going from GNAVQEIMIPASKAGLVIGKGGETIKQLQERAGVKMVMIQDGPQNTGADKPLRITGDPYKVQQAKEYVLELIRD [M67Y] to GNAVQEIMIPASKAGLVIGKGGETIKQLQERAGVKMVMIQDGPQNTGADKPLRITGDPYKVQQAKECVLELIRD [M67C], the abundance fitness falls from -0.088 ± 0.046 to -0.187 ± 0.04.

GNAVQEIMIPASKAGLVIGKGGETIKQLQERAGVKMVMIQDGPQNTGADKPLRITGDPYKVQQAKEDVLELIRD [M67D] and GNAVQEIMIPASKAGLVIGKGGETIKQLQERAGVKMVMIQDGPQNTGADKPLRITGDPYKVQQAKERVLELIRD [M67R] are within error of each other in abundance fitness: -0.075 ± 0.042 for the first, -0.096 ± 0.026 for the second.

GNAVQEIMIPASKAGLVIGKGGETIKQLQERAGVKMVMIQDGPQNTGADKPLRITGDPYKVQQAKEEVLELIRD [M67E] and GNAVQEIMIPASKAGLVIGKGGETIKQLQERAGVKMVMIQDGPQNTGADKPLRITGDPYKVQQAKEMVFELIRD [L69F] are within error of each other in abundance fitness: -0.082 ± 0.035 for the first, -0.077 ± 0.051 for the second.

GNAVQEIMIPASKAGLVIGKGGETIKQLQERAGVKMVMIQDGPQNTGADKPLRITGDPYKVQQAKEMVEELIRD [L69E] and GNAVQEIMIPASKAGLVIGKGGETIKQLQERAGVKMVMIQDGPQNTGADKPLRITGDPYKVQQAKEMVGELIRD [L69G] are within error of each other in abundance fitness: 0.011 ± 0.034 for the first, -0.018 ± 0.028 for the second.

First: GNAVQEIMIPASKAGLVIGKGGETIKQLQERAGVKMVMIQDGPQNTGADKPLRITGDPYKVQQAKEMVIELIRD [L69I]
Second: GNAVQEIMIPASKAGLVIGKGGETIKQLQERAGVKMVMIQDGPQNTGADKPLRITGDPYKVQQAKEMVAELIRD [L69A]
The abundance fitness of the first is lower: -0.102 ± 0.048 for the first, -0.01 ± 0.03 for the second.

GNAVQEIMIPASKAGLVIGKGGETIKQLQERAGVKMVMIQDGPQNTGADKPLRITGDPYKVQQAKEMVHELIRD [L69H] and GNAVQEIMIPASKAGLVIGKGGETIKQLQERAGVKMVMIQDGPQNTGADKPLRITGDPYKVQQAKEMVDELIRD [L69D] are within error of each other in abundance fitness: -0.073 ± 0.047 for the first, 0.016 ± 0.044 for the second.

First: GNAVQEIMIPASKAGLVIGKGGETIKQLQERAGVKMVMIQDGPQNTGADKPLRITGDPYKVQQAKEMILELIRD [V68I]
Second: GNAVQEIMIPASKAGLVIGKGGETIKQLQERAGVKMVMIQDGPQNTGADKPLRITGDPYKVQQAKEMHLELIRD [V68H]
The abundance fitness of the first is higher: -0.023 ± 0.044 for the first, -0.495 ± 0.055 for the second.

GNAVQEIMIPASKAGLVIGKGGETIKQLQERAGVKMVMIQDGPQNTGADKPLRITGDPYKVQQAKEMDLELIRD [V68D] and GNAVQEIMIPASKAGLVIGKGGETIKQLQERAGVKMVMIQDGPQNTGADKPLRITGDPYKVQQAKEMSLELIRD [V68S] are within error of each other in abundance fitness: -0.359 ± 0.041 for the first, -0.425 ± 0.034 for the second.

Going from GNAVQEIMIPASKAGLVIGKGGETIKQLQERAGVKMVMIQDGPQNTGADKPLRITGDPYKVQQAKEMRLELIRD [V68R] to GNAVQEIMIPASKAGLVIGKGGETIKQLQERAGVKMVMIQDGPQNTGADKPLRITGDPYKVQQAKEMFLELIRD [V68F], the abundance fitness falls from -0.562 ± 0.031 to -0.658 ± 0.057.

GNAVQEIMIPASKAGLVIGKGGETIKQLQERAGVKMVMIQDGPQNTGADKPLRITGDPYKVQQAKEMPLELIRD [V68P] and GNAVQEIMIPASKAGLVIGKGGETIKQLQERAGVKMVMIQDGPQNTGADKPLRITGDPYKVQQAKEMELELIRD [V68E] are within error of each other in abundance fitness: -0.428 ± 0.047 for the first, -0.427 ± 0.035 for the second.

GNAVQEIMIPASKAGLVIGKGGETIKQLQERAGVKMVMIQDGPQNTGADKPLRITGDPYKVQQAKEMKLELIRD [V68K] and GNAVQEIMIPASKAGLVIGKGGETIKQLQERAGVKMVMIQDGPQNTGADKPLRITGDPYKVQQAKEMGLELIRD [V68G] are within error of each other in abundance fitness: -0.41 ± 0.039 for the first, -0.48 ± 0.031 for the second.

GNAVQEIMIPASKAGLVIGKGGETIKQLQERAGVKMVMIQDGPQNTGADKPLRITGDPYKVQQAKEMTLELIRD [V68T] showed an abundance fitness of -0.143 ± 0.034.
